Earlier results in PMC2996745.

Target: VEGFR2 (flk-1) (Homo sapiens) (UniProt P35968)
UniProt P35968, sequence (P35968 20-1356): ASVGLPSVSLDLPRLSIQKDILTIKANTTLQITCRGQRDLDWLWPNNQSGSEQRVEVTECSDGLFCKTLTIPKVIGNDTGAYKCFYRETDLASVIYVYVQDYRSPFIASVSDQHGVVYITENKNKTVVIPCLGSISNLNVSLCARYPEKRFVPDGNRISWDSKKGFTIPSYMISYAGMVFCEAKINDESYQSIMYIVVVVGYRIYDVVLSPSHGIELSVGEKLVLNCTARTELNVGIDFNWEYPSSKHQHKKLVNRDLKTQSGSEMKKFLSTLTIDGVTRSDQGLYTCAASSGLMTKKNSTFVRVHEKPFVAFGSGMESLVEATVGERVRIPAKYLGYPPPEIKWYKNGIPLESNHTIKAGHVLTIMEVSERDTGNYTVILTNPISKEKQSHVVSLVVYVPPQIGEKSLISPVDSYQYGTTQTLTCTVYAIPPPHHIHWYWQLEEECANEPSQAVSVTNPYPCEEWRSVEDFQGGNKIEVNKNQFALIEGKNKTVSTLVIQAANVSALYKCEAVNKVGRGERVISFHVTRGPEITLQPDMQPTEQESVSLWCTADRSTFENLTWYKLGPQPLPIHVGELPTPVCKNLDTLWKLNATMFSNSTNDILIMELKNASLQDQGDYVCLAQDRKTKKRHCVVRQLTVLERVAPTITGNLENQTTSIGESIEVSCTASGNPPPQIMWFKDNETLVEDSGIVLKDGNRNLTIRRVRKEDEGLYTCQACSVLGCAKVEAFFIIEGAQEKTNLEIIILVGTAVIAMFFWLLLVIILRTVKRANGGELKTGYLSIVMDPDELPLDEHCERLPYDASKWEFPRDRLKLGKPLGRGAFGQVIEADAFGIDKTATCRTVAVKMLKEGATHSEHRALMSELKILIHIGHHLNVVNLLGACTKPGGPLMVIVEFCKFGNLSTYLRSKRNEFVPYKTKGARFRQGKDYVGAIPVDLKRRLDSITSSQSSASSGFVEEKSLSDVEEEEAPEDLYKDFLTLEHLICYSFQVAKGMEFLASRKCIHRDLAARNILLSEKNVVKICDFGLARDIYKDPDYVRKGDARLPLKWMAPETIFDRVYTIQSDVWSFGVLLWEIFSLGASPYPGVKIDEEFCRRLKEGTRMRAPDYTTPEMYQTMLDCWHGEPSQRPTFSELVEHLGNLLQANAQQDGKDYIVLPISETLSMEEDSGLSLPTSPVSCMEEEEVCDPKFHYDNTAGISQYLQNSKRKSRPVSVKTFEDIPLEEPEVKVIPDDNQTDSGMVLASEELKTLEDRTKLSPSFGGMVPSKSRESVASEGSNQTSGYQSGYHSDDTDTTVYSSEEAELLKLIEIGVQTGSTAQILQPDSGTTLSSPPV

Kd: 0.1 nM
Substance: VEGF-A (from UniProt P15692)
